The supplement of paper PMC9170038

Test system: MS2 coat protein
Assay: apparent KD of MS2 coat protein; designed switch direction (-1 OFF switch, 1 ON switch): 1; higher = weaker reporter binding
How it was run: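 Designed RNA switches with common flanks were transcribed on Illumina chips by stalled E. coli RNA polymerase and titrated with SNAP-549-labelled MS2 coat protein, from 0.7 or 1.5 nM doubling to 3 µM, in Tris-HCl pH 7.5 buffer with KCl, MgCl2, BSA, DTT, tRNA and Tween-20. Steps lasted 0.8–1.5 h (lowest) to 10–20 min (highest). Titrations ran without input, with 200 uM small-molecule ligand, or with an oligonucleotide input. Normalised cluster fluorescence was curve-fitted, and apparent KD is the per-design median over clusters.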

[1] = Eterna round: R95, input ligand: FMN 200 uM
[2] = Eterna round: R95, input ligand: microRNA oligo, concentration not stated
[3] = Eterna round: R95, input ligand: none
[4] = input ligand: microRNA oligo, concentration not stated

Sequence | apparent KD of MS2 coat protein [1] | apparent KD of MS2 coat protein [2] | apparent KD of MS2 coat protein [3] | apparent KD of MS2 coat protein [4] | apparent KD of MS2 coat protein (input ligand: FMN 200 uM) | apparent KD of MS2 coat protein (input ligand: none)
GAGGAACAUGAGGAUCACCCAUGUAAAGGGUUUAAAGGAUAUUAUUGGGAGAAAGUAGGGUAAGAAGGUUGAUUGG [JR_SS1_Sub087] (puzzle: Same State 1) | 120 nM | 127 nM | 168 nM | – | – | –
UGUUAUUAGACAGGAUAUUGAAUGUUAAGUAUUAACAUGAGGAUCACCCAUGUAUUUGAUUGGUACAAGAAGGGUCAUGUUUGU [JR_SSNG2_Sub015] (Eterna round: R96, puzzle: Same State NG 2) | – | – | – | 303 nM | – | –
GUUACAUGAGGAUCACCCAUGUAUGUGUGGGAGUAAGUGUCUUAGGAUAUCUAGUAUUUAACUUAAGAGAAGGAAGAUUGUUGU [JMF's solution 63] (Eterna round: R96, puzzle: Same State NG 3) | – | – | – | 95.8 nM | 142 nM | 105 nM
CGCCAGAGAGCAGGAUAUGGGCCACGGCCUAAGGGCUGUGAACUCACAUGAGGAUCACCCAUGUCCCAGAAGGGCUCCUGGCUA [Temabeanan] (Eterna round: R96, puzzle: Same State NG 2) | – | – | – | 1020 nM | 112 nM | 1180 nM
AUGAAGAAUUAAGGAUAUUGAAUACAUAUGUUUAACAUGAGGAUCACCCAUGUGGGUUGCGGUAUCGAGAAGGUAAAAUAAUAG [Mat - same State NG 2 - JL mod - D91] (Eterna round: R96, puzzle: Same State NG 2) | – | – | – | 79.4 nM | 162 nM | 136 nM
CUAUCUACAGGUUUCAGUGCUCGUCUUAUACAUGAGGAUCACCCAUGUUAUAGCCCGGUGCUUGCGCUGGGCUGAUU [JL ViennaUCT Tearor mod 3] (puzzle: Sensor for hsa-mir-208a) | 31.4 nM | 14.8 nM | 39.3 nM | – | – | –
GUUACAUGAGGAUCACCCAUGUAUGUGUGGGAGUAAGUGUCUUAGGAUAUCUAUUAGUUAAAUUAAGAGAAGGAAGAUUGUUGU [JMF's solution 15] (Eterna round: R96, puzzle: Same State NG 3) | – | – | – | 91.4 nM | – | –
CGUCGUUUGAUAGGAUAUCGCUUUACAUGCGGAUCACCCAUGUUUACCACGCUGGUUUUUCUUUCCGAGAAGGAUUCUGAUGUU [salish99_SSNG02_r04_026] (Eterna round: R96, puzzle: Same State NG 2) | – | – | – | 10.1 nM | 42 nM | 134 nM
GGUCCAGCCUGAGCUGGACAAAAGCAUGUACAUGAGGAUCACCCAUGUCAUGUACAAGCUUUUUGCUCGUCAAAAGG [Mat - hsa-mir-208a - 102] (puzzle: Sensor for hsa-mir-208a) | 54.3 nM | 16 nM | 89.5 nM | – | – | –
GUUACAUGAGGAUCACCCAUGUAUGUGUGGGAGUAAGUGUCUUAGGAUAUCUGUUAUUCAAUUUAAGAGAAGGAAGAUUGUUGU [JMF's solution 38] (Eterna round: R96, puzzle: Same State NG 3) | – | – | – | 49.5 nM | 97.1 nM | 76.5 nM
GGAGCCGGCACUGAGGAUAUUCAUAUUAAAACAUGAGGAUCACCCAUGUAGGCCAGAAGGCCUUGGGAGAAGGCAGGUCGGCUCA [Mat - Same State 2 - Mod of UCT - D59] (puzzle: Same State 2) | 20.5 nM | 235 nM | 338 nM | – | – | –
UAGAGAGGAAGCGAGGAUAUCGUGGGAGGGACAUGAGGAUCACCCAUGUAGGAUGUUGAGAGGAACGAGAAGGCGCAGGAAAGUA [JR_SS2_Sub076] (puzzle: Same State 2) | 92.4 nM | 63.5 nM | 91.2 nM | – | – | –
GCUCGCACGAUGACCGACAUGAGGAUCACCCAUGUGUGUCGGUAGGAUAUCUAUAUUAAGGAUUUAGAGAAGGGCCCAGCGAGC [SameState NG3 #20] (Eterna round: R96, puzzle: Same State NG 3) | – | – | – | 68.5 nM | 68.3 nM | 69.3 nM
GCUAGGAAUAAAGCCAACAUGAGGAUCACCCAUGUAUGUUGGUAGGAUAUCGUUUGCAAAGCAAACGAGAAGGGCUAACCUAGC [Mat - Same State NG 3 - JL Mod - D68] (Eterna round: R96, puzzle: Same State NG 3) | – | – | – | 62.7 nM | 85.8 nM | 71.1 nM
AGUCCAGCGAAAGCUGGACAAAAGCAUGUACAUGAGGAUCACCCAUGUUUAUGUACAAGCUUUUUGCUCGUCUUAAA [JL mod - D95 - 11] (puzzle: Sensor for hsa-mir-208a) | 274 nM | 14.2 nM | 300 nM | – | – | –
UGAGCCGGCACUGAGGAUAUUCAUAUUAAAACAUGAGGAUCACCCAUGUAGGCCAGAAGGCCUUGGGAGAAGGCAGGUCGGCUCA [Mat - Same State 2 - Mod of UCT - D62] (Eterna round: R96, puzzle: Same State 2) | – | – | – | 190 nM | 19.5 nM | 311 nM

Sequence | apparent KD of MS2 coat protein [1] | apparent KD of MS2 coat protein [2] | apparent KD of MS2 coat protein [3] | apparent KD of MS2 coat protein [4] | apparent KD of MS2 coat protein (input ligand: FMN 200 uM) | apparent KD of MS2 coat protein (input ligand: none)
CGGGAAAUCGUAGGAUAUCUAGGAUAUGAACGAGGAUCACCCGAGCAGCAUCAGCGCAUCAGAGGAGAGAAGGACGAUGAUGCG [pwkr ssNG2 2F5 2FMN.17] (Eterna round: R96, puzzle: Same State NG 2) | – | – | – | 273 nM | 327 nM | 65.7 nM
GGUACCAUCACAGGAUAUGCUAUCCUUUGGGUAGCAGAAGGGUGAAACAUGAGGAUCACCCAUGUGGUGCCAGGGCGUGAGCCC [JL SSNG1 1.92] (Eterna round: R96, puzzle: Same State NG 1) | – | – | – | 398 nM | 31.2 nM | 689 nM
AGUCCAGCGAAAGCUGGACAAAAGCAUGUACAUGAGGAUCACCCAUGUUCAUGUAUAAGCUUUUUGCUCGUUUUAAA [JL mod - D95 - 17] (puzzle: Sensor for hsa-mir-208a) | 16.2 nM | 10.2 nM | 15.9 nM | – | – | –
CGUCCAGCCUGAGCUGGACAAAAGCAUGUACAUGAGGAUCACCCAUGUUCAUGUACAAGCUUUUUGCUCGUCUUACG [salish99_208a_r3_093x] (puzzle: Sensor for hsa-mir-208a) | 507 nM | 16.7 nM | 617 nM | – | – | –
ACAAGCUUUUCUGUAUUGAAAGGUGGGAUACAUGAGGAUCACCCAUGUUUGUUUGUUUAUUGUUUUCCUCGUCUUAU [JR_SHM208A_Sub089] (puzzle: Sensor for hsa-mir-208a) | 71 nM | 27.5 nM | 66.2 nM | – | – | –
GGGCCAGCUUUUGCUGGGCCUUCGCUUGCACAUGAGGAUCACCCAUGUCGUGUACACGCUUCCUGCCCGUCUUGUUU [Photon Torp-19] (puzzle: Sensor for hsa-mir-208a) | 24 nM | 15.3 nM | 24.6 nM | – | – | –
UACAAUCUAUCUGAGGAUAUCAUGAAUAAAACAUGAGGAUCACCCAUGUGCAGGAUAACUGCAAAUGAGAAGGCAGAUAGAUUGU [Mat - Same State 2 - Mod - D8] (puzzle: Same State 2) | 13.5 nM | 16 nM | 24.1 nM | – | – | –
AGCUAUCGAAAACGAUAGCAAAAGCAUGUACAUGAGGAUCACCCAUGUCAUGUGCAAGCUUUUUGCUCGUCUUAAAA [Zipper 23 - 4] (puzzle: Sensor for hsa-mir-208a) | 163 nM | 10.7 nM | 208 nM | – | – | –
GCUGCAAUAAACGCCUACAUGAGGAUCACCCAUGUAUGUAGGCAGGAUAUCGUAUGCAAAGCAUACGAGAAGGGCCGUAGUAGC [Mat - Same State NG 3 - JL Mod - D36] (Eterna round: R96, puzzle: Same State NG 3) | – | – | – | 44.4 nM | 26.4 nM | 56.6 nM
GCUAGGAAAGAAGCCAACAUGAGGAUCACCCAUGUAUGUUGGUAGGAUAUCGUUUGCAAAGCAAACGAGAAGGGCUAACCUAGC [Mat - Same State NG 3 - JL Mod - D73] (Eterna round: R96, puzzle: Same State NG 3) | – | – | – | 203 nM | 202 nM | 184 nM
ACAUGAGACUCAGGAUAUCAUGUACCUACAUGUGACAUGAGGAUCACCCAUGUGGUAAGUAUGACUGAGAAGGGAGAGAUAUGU [Equivalance 88 - Jieux - Same State NG 2] (Eterna round: R96, puzzle: Same State NG 2) | – | – | – | 159 nM | 63.7 nM | 248 nM
AAUUUGGGACAUGAGGAUCACCCAUGUAUUAUAAAUGGGACAAGUUUUUUGCUCGUCUUAUACAUGGGUGAAAAUCU [Test] (puzzle: Sensor for hsa-mir-208a version 2) | 17.8 nM | 21.7 nM | 23.7 nM | – | – | –
GCAUCACAUGAGGAUCACCCAUGUCUUCGGAGUGGAGGAUAUGGUCACUGUAAACAGUGGCCAGAAGGCCGGAUGC [SS1 - Son of Teenbexe v2] (puzzle: Same State 1) | – | 63.3 nM | – | – | – | –
GGUCCAGCCUGAGCUGGACAGAAGCAUGUACAUGAGGAUCACCCAUGUCAUGUACAAGCUUUUUGCUCGUCUUAAAA [JL mod - D87 - 1] (puzzle: Sensor for hsa-mir-208a) | 439 nM | 13.2 nM | 498 nM | – | – | –
GGCCUGAGUGAAGGAUAUGCUACCGUUUCGGUAGCAGAAGGUCAUCACAUGAGGAUGACCCAUGUUUACGCGAACACGCGCGCC (Eterna round: R96, puzzle: Same State NG 1) | – | – | – | 27.2 nM | 45.9 nM | 28.2 nM
